Blank lines part the entries; values can stand above or below the binder they belong to.
Experiments:
human LAG3 on cells [1] = target: T1, human LAG3 on cells (human, UniProt P18627 23-525); assay: flow cytometry (MFI) on activated human PBMC (CD4+ cells), lower panel
T1 construct: whole, on cells; also called Jurkat-LAG3
T1 sequence (looked up): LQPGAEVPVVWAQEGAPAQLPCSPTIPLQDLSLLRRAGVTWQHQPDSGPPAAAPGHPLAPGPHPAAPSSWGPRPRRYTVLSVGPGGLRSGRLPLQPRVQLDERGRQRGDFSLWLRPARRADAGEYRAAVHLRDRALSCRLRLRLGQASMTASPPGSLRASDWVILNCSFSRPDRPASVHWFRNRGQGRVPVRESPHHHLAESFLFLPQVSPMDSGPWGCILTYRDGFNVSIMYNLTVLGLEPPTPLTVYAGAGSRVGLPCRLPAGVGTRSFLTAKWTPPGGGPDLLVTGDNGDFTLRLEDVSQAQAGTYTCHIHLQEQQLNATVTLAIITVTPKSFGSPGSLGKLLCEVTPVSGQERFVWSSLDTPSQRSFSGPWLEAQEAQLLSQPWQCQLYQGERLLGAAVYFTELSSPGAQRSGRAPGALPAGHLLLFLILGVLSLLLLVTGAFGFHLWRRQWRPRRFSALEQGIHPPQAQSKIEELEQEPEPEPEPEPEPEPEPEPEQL
Experimental: (§1) To further confirm that B3807 could bind to cell-derived human LAG3, both inducible human LAG3 expressed Jurkat cells and activated PBMCs were used to test the binding capability of B3807. In brief, Jurkat cells were resuspended in FACS buffer. B3807, 25F7 and isotype control were 3-fold serially diluted in FACS buffer with a dose ranging from 20 nM to 9 pM. The serially diluted antibodies were added to the cell suspension and incubated for 30 minutes on ice. Then after removal of unbound antibodies, cells were stained with anti-human IgG conjugated with Alexa Fluor 633 (Thermo, A21091). Fluorescence measurement was acquired on FACSCelesta flow cytometer and analyzed in Flowjo to determine the mean fluorescence intensities (MFI). To test the antibodies' ability of binding to native human LAG3, PBMCs from health donor were stimulated with anti-CD3 (BD, 555336) and anti-CD28 (BD, 555725) both at a concentration of 1 μg/ml. Following 3 days' stimulation, cells were harvested and incubated with anti-LAG3 antibodies for 30 mins on ice. The cells were stained with anti-human CD4 and anti-human IgG. Analysis of antibodies binding to CD4+ cells were carried out on FACSCelesta flow cytometry.

human LAG3 on cells [2] = target: T1, human LAG3 on cells; assay: flow cytometry (MFI) on human LAG3-expressing Jurkat cells, upper panel
Experimental: as §1

Bio-LAG3 = target: T2, Bio-LAG3 (human, UniProt P18627 23-450, limits assumed, biotinylated (sites not given)); assay: ELISA, Bio-LAG3 held on streptavidin-coated plate
T2 construct: also called human LAG3 protein
T2 sequence (looked up): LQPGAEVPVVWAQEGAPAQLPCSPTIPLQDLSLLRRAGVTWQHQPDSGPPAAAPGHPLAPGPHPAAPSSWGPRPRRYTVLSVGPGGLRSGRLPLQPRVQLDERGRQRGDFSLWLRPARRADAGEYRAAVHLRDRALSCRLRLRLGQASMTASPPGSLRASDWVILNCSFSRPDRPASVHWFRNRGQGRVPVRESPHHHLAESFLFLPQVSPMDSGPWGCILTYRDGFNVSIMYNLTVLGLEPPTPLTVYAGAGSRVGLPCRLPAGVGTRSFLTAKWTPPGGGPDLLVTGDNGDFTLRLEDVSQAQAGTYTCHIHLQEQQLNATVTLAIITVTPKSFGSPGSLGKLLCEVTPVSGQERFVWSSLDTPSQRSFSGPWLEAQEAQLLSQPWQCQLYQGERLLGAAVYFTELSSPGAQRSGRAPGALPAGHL
Experimental: The streptavidin was coated to an ELISA plate at 2 μg/ml with 100 μl/well. 100 μl of Bio-LAG3 at 1.0 μg/ml was subsequently incubated with streptavidin at RT for 1 hr. B3807, along with a positive control 25F7 and a negative control IgG, were serially diluted with ELISA diluent buffer. To assess binding, the antibodies at various concentrations were added to LAG3 protein-coated plate for 1.5 hr RT. The resulting plates were washed and then labeled with anti-human IgG(Fab)-HRP antibody.

[3] = target: T3, mouse LAG3 ECD-Fc protein (mouse, UniProt Q61790 24-442); assay: ELISA on coated mouse LAG3 ECD-Fc; EC50 table has no unit, x axis Ab(nM); curve without upper plateau
T3 construct: extracellular domain; not shown: Fc part
T3 sequence (looked up): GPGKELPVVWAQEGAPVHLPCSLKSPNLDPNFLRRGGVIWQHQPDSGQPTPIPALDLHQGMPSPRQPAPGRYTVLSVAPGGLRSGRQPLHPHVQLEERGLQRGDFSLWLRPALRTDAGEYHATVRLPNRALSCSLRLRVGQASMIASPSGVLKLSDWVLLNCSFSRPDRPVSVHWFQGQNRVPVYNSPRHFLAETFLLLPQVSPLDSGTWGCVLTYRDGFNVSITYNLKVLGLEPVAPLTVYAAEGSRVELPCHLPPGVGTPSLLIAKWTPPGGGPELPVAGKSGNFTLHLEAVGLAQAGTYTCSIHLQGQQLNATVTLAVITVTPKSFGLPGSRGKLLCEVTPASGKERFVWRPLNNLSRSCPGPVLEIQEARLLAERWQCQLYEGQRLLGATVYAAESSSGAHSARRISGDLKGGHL
Experimental: (§2) To evaluate the capability of the anti-LAG-3 antibodies to bind to human, rat, and mouse LAG3 the antibodies identified in Example 2.1 were evaluated for their binding property through ELISA. The human, rat and mouse LAG3 ECD-Fc protein were coated to ELISA plate at 1 μg/ml with 100 μl/well. Antibodies from Example 1 were serially diluted with ELISA diluent buffer. […] The resulting plates were washed and then labeled with anti-human IgG(Fab)-HRP antibody. The S31 can only bind to human LAG3. The S27 and T99 can bind to human LAG3 and rat/mouse LAG3 with lower potency. The S119 antibody can bind to human, rat and mouse LAG3 at high potency (FIGS. 22A-22D).

rat LAG3 ECD-Fc protein = target: T4, rat LAG3 ECD-Fc protein (rat, UniProt Q5BK54 24-442); assay: ELISA on coated rat LAG3 ECD-Fc; EC50 table has no unit, x axis Ab(nM); curve without upper plateau
T4 construct: extracellular domain; not shown: Fc part
T4 sequence (looked up): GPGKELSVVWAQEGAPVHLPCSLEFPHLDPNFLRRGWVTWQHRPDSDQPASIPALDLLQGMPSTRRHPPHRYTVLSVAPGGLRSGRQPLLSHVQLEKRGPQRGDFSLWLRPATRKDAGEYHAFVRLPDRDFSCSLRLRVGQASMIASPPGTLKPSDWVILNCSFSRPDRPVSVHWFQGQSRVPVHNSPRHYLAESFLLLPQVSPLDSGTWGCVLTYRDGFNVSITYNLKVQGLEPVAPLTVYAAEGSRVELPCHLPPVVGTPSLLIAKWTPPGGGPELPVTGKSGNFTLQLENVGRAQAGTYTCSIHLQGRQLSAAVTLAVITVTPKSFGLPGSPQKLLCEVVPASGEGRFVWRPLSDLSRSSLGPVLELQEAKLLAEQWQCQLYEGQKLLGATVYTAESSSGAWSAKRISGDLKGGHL
Experimental: as §2

[4] = target: T5, recombinant human LAG-3-ECD-human IgG1 fusion protein (human, UniProt P18627 23-450, biotin-labeled in the MHC class II blocking assays); assay: flow cytometry; blocking of biotin-LAG-3-ECD-huFc binding to MHC class II on Raji cells
T5 construct: extracellular domain; also called LAG-3-huFc; LAG-3-ECD-huFc; not shown: human IgG1 Fc
T5 sequence (looked up): T2 sequence (looked up)
Experimental: To evaluate the ability of anti-LAG-3 antibodies to block the binding of sLAG-3 to MHC class II receptor, an in vitro binding assay was designed using biotin-labeled LAG-3-ECD-huFc fusion proteins and Raji cells expressing MHC class II receptor. Antibodies from Example 1 were serially diluted from 20 μg/mL with FACS buffer and pre-incubated with 6 μg/mL of biotin-LAG-3-ECD-huFcc for 30 min at room temperature. The antibody mixture was then added to FcR blocked Raji cells and incubated for 30 min on ice. Cells were then washed with FACS buffer and subsequently stained with streptavidin PE for 30 min on ice and subsequently washed once with FACS buffer. Labeled cells were evaluated for fluorescence intensity by flow cytometry in a BD FACSCalibur™.

[5] = target: T5, recombinant human LAG-3-ECD-human IgG1 …; assay: ELISA on coated human LAG3 ECD-Fc; EC50 table has no unit, x axis Ab(nM)
Experimental: as §2

[6] = target: T6, recombinant his-tag human LAG3-ECD protein (human, UniProt P18627 23-450); assay: SPR Biacore T200, antibody captured by anti-human Fc, LAG3-ECD-his injected
T6 construct: extracellular domain; not shown: his tag
T6 sequence (looked up): T2 sequence (looked up)
Experimental: The binding of the S20, S24, S27, S31, S87, S119, S120, S128, S136, S161 and T99 antibodies to recombinant his-tag human LAG3-ECD protein was examined by Biacore T200 using a capture method. Anti-LAG3 antibodies were captured using anti-human Fc antibody. The anti-human Fc antibody was coated on chip. Serial concentrations of his-tag human LAG3-ECD protein (0-4 nM) were injected over capture antibodies at the flow rate of 30 μl/min. The dissociation phase was 900 s or 550 s. The Biacore results for the anti-LAG3 antibodies have shown that these anti-LAG3 antibodies are high affinity binder to human LAG3.

- EC50 (human LAG3 on cells [1]): 520 pM
- EC50 (human LAG3 on cells [2]): 570 pM
- EC50 (Bio-LAG3): 220 pM
B1: 25F7 (antibody, V domains shown)
VH: QVQLQQWGAGLLKPSETLSLTCAVYGGSFSDYYWNWIRQPPGKGLEWIGEINHNGNTNSNPSLKSRVTLSLDTSKNQFSLKLRSVTAADTAVYYCAFGYSDYEYNWFDPWGQGTLVTVSS
VL: EIVLTQSPATLSLSPGERATLSCRASQSISSYLAWYQQKPGQAPRLLIYDASNRATGIPARFSGSGSGTDFTLTISSLEPEDFAVYYCQQRSNWPLTFGQGTNLEIK

- EC50 [3]: 16900 pM
- EC50 (rat LAG3 ECD-Fc protein): 20800 pM
- IC50 [4]: 23700 pM
- EC50 [5]: 63.8 pM
- Kd [6]: 22.4 pM
- koff [6]: 0.00017 s⁻¹
- kon [6]: 7.62e+06 M⁻¹ s⁻¹
B2: NLAG3-HDB169-T99 (antibody, human IgG1, V domains shown)
VH: QVQLVQSGAEVKKPGSSVKVSCKASGGTFSSYAISWVRQAPGQGLEWMGGIIPIFGTANYAQKFQGRVTITADESTSTAYMELSSLRSEDTAVYYCVRDLQDWNYGGAAYWGQGTLVTVSS
VL: VIWMTQSPSSLSASVGDSVTITCQASRDISNSLSWHQQKPGKAPKLLIYAASSLQSGVPSRFSGSGSGTDFTLTISSLQPEDFATYYCQQTKSFPLTFGGGTKVEIKR
notes: Short label tied by its unique suffix

Reference: US20220363763A1 (ABL BIO, published 2022)
